Data taken from article PMC12329027 (Communications Chemistry, 2025).

Target: the molecule itself
Experiment: cryo-EM structure

B1: full-length human αA-crystallin carrying the pathological mutation R116C (natural protein)
chain: MDVTIQHPWFKRTLGPFYPSRLFDQFFGEGLFEYDLLPFLSSTISPYYRQSLFRTVLDSGISEVRSDRDKFVIFLDVKHFSPEDLTVKVQDDFVEIHGKHNERQDDHGYISREFHCRYRLPSNVDQSALSCSLSADGMLTFCGPKIQTGLDATHAERAIPVSREEKPTSAPSS
B1: binds.
